The text below walks through data of patent US20230285509A1, “INTERFERON-BASED DISEASE TREATMENT METHOD” (XIAMEN AMOYTOP BIOTECH CO., LTD., priority 2019, published 2023).

The test system of data set [1] is transplanted liver cancer H22. As to the kind of experiment: Transplanted liver cancer H22 in mice, survival, gemcitabine combination (Example 11). It is filed as in vivo, BALB/c mice. Particulars: gemcitabine 60 mg/kg ip once a week. The method, then: After being divided into groups, the corresponding drugs or saline were administered. […] With respect to the intermittent administration, it was administered once every 48 hours, for three times continuously, before discontinuation of 144 hours. Gemcitabine was administered by intraperitoneal injection at a dose of 60 mg per kilogram of body weight each time, once a week. The normal saline control group was given an equal volume of normal saline. The PEG-mIFN-α4 intermittent administration combined with gemcitabine group was given gemcitabine during the first injection of PEG-mIFN-α4, and then administered with gemcitabine once a week thereafter. All groups were subjected to survival analysis to compare differences between groups.

Data set [2] deals with melanoma B16. As to the kind of experiment: Melanoma B16 in mice, tumor volume (Example 10). The format is in vivo, C57BL/6N mice. As to conditions: 14 days after tumor inoculation; once a week; PEG-mIFN-α4 1.0 μg/w sc, gemcitabine 60 mg/kg/w ip. From the text: (§1) The anticancer agent was gemcitabine (Jiangsu Hansoh Pharmaceutical Group Co., Ltd). […] Statistical tests were all two-sided tests.

The test system of data set [3] is colorectal cancer CT26. As to the kind of experiment: Colorectal cancer CT26 in mice, tumor volume (Example 9). Particulars: day 43; once a week; PEG-mIFN-α4 1.0 μg/w sc, gemcitabine 60 mg/kg/w ip. It is filed as in vivo, BALB/c mice.
Excerpt: as §1

The test system of data set [4] is lung cancer LLC. As to the kind of experiment: Lung cancer LLC in mice, tumor volume (Example 8). The format is in vivo, C57BL/6N mice. Particulars: 24 days after tumor inoculation; once a week; PEG-mIFN-α4 1.0 μg/w sc, gemcitabine 60 mg/kg/w ip.
Excerpt: as §1

Data set [5] has as its system liver cancer H22. As to the kind of experiment: Liver cancer H22 in mice, tumor volume (Example 7). The format is in vivo, BALB/c mice. As to conditions: 18 days after tumor inoculation; once a week; PEG-mIFN-α4 1.0 μg/w sc, gemcitabine 60 mg/kg/w ip. Here is the method:
The average tumor volume for each individual group was calculated based on the formula V=1/2ab^2 (a and b represent length and width (mm) respectively) by measuring the tumor diameter, and the anti-tumor effect was observed dynamically.
Statistical tests were all two-sided tests.

The subject of data set [6] is mouse fibroblast/encephalomyocarditis virus (L929/EMCV). As to the kind of experiment: Mouse fibroblast/encephalomyocarditis virus (L929/EMCV) cytopathic inhibition method. The format is cell-based. Particulars: commercial mIFN-α4 (R&D) as the standard. The method, then:
The bacterial endotoxin content of the deglycosylated mIFN-α4 stock solution was determined by the Limulus reagent method as lower than 60 EU/mg. specific activity was determined as 5.4×10^8 U/mg by using the commercial mIFN-α4 (R&D, catalog number 12115-1) as the standard, and by using the mouse fibroblast/encephalomyocarditis virus (L929/EMCV) cytopathic inhibition method.
The bacterial endotoxin content of the PEG-mIFN-α4 stock solution was determined by the Limulus reagent method as lower than 15 EU/mg. Specific activity was determined as 6.1×10^6 U/mg by using the commercial mIFN-α4 (R&D, catalog number 12115-1) as the standard, and by using the mouse fibroblast/encephalomyocarditis virus (L929/EMCV) cytopathic inhibition method.
(Damage to the host cells serves as the signal in cytopathic effect assays.)

In data set [7] the test system is transplanted liver cancer H22. As to the kind of experiment: Continuous vs intermittent administration, transplanted liver cancer H22 in mice, survival (Example 6). It is filed as in vivo, BALB/c mice.
On the set-up of data set [8]: species or system BALB/c mice. Particulars: mouse, in vivo, sc.
Procedure: In this example, BALB/c mice were purchased from Beijing Vital River Laboratory Animal Technology Co., Ltd. The blood concentration of PEG-mIFN-α4 was detected by double-antibody sandwich ELISA.
6-8 weeks old, SPF grade BALB/c mice (N=60, with fifty-fifty of male and female mice) were injected with a single injection of 1 μg/mouse PEG-mIFN-α4 subcutaneously on the back of the neck. Plasma samples were collected before the injection (0 h) and after the injection at 15 h, 24 h, 36 h, 48 h, 72 h, 96 h, 120 h, 168 h, 216 h, 264 h, 312 h, to determine the blood concentration. Phoenix WinNonlin 6.4 software was used to calculate the pharmacokinetic parameters.

“And” between values parts separate entries of the source, which are not always exact repeats. Equal entries are not always repeated.

In the case of `Nc1ccn([C@@H]2O[C@H](CO)[C@@H](O)C2(F)F)c(=O)n1` [Gemcitabine, reference compound], in data set [1] (by day 41, PEG-mIFN-α4 1 microgram per mouse intermittent), the mortality rate is 73.1%. Also, the “Median survival period (Time after tumor inoculation, days)” value in data set [1] is given as 21.5 days. The “Mean tumor volume (Standard deviation)” value is recorded as 2279.9 (807.6) mm^3 in data set [2], 1558.2 (2225.2) mm^3 in data set [3], 1466.6 (791.5) mm^3 in data set [4] and 1619.3 (911.2) mm^3 in data set [5].

B1: deglycosylated mIFN-α4: recombinant mouse interferon α4 expressed in Pichia pastoris, glycosyl groups removed with glycosidase (protein, UniProt P07351 25-186, looked up)
Interferon alpha-4: CDLPHTYNLGNKRALTVLEEMRRLPPLSCLKDRKDFGFPLEKVDNQQIQKAQAILVLRDLTQQILNLFTSKDLSATWNATLLDSFCNDLHQQLNDLKACVMQEPPLTQEDSLLAVRTYFHRITVYLRKKKHSLCAWEVIRAEVWRALSSSTNLLARLSEEKE
modifications: deglycosylated
notes: recombinant mouse interferon α4 expressed in Pichia pastoris, glycosyl groups removed with glycosidase
Take B1: in data set [6], the Specific activity is 5.4×10^8 U/mg.

B2: PEG-mIFN-α4: PEGylated recombinant mouse interferon α4: deglycosylated mIFN-α4 modified with 40 kD Y-type polyethylene glycol succinimide ester (YPEG-NHS) (protein, UniProt P07351 25-186, looked up)
Interferon alpha-4: B1 Interferon alpha-4
modifications: 40 kD Y-type PEG, deglycosylated
With B2, in data set [7] (continuous administration: 1 microgram per animal sc once every 48 hours, 21 times), the “Median survival period (Time after tumor inoculation, days)” value was 38 days and 38.0 days. Also, the “Survival rate during the observation period” value in data set [7] (intermittent administration: 1 microgram per animal sc once every 48 hours for 3 times, suspended 144 hours, 4 rounds, Day 40 after tumor inoculation) is 93.3% and 93.3%. Further, the “Mean tumor volume (Standard deviation)” value in data set [2] was 1639.7 (979.5) mm^3. Also, the “Mean tumor volume (Standard deviation)” value in data set [3] was 5283.7 (5030.5) mm^3. For the same molecule, the Specific activity in data set [6] is reported as 6.1×10^6 U/mg. Besides, in data set [8], the “Cl_F—obs” value is 0.07 mL/h, the “T1/2 (elimination half-life)” value came out at 28.3 h, the “Tmax (plasma concentration peak time)” value stood at 24 h and the “Vz_F—obs” value was 2.91 mL. For the same molecule, the “Mean tumor volume (Standard deviation)” value in data set [4] is 4000.8 (2513.7) mm^3. In data set [5], the “Mean tumor volume (Standard deviation)” value was 846.2 (592.0) mm^3.
